From patent publication US20180030151A1 (MOGAM INSTITUTE FOR BIOMEDICAL RESEARCH, published 2018)

Molecular target: T1, recombinant human TFPI (tissue factor pathway inhibitor) (human, UniProt P10646 29-304)
T1 construct: Biotin-conjugated in the yeast FACS; also called hTFPI; TFPI antigen
Experiment: ELISA of phage-library Fab supernatants on TFPI-coated plate
Protocol: Single colonies were collected from the finally amplified library, and then cultured in 1.5 mL of SB/carbenicillin at 37° C. at 220 rpm until an OD600 of about 0.8-1.0 was reached, followed by incubation with 1 mM IPTG at 30° C. at 200 rpm for 12 hours. Next, the cells were centrifuged at 5500 rpm for 5 minutes, and the supernatant was added to a TFPI antigen-coated ELISA plate, incubated at room temperature for 2 hours, and then washed four times with PBST (1×PBS, 0.05% tween 20). Next, a 1:5000 dilution of an HRP/anti-hFab-HRP conjugate (CAT. No. A0293, Sigma) with 1% BSA/1×PBS was added to the cells, after which the cells were incubated at room temperature for 1 hour and washed four times with PBST (1×PBS, 0.05% tween 20). Then, the cells treated with a TMB solution for 5-10 minutes, and a TMB stop solution was added to the cells. Next, the absorbance at a wavelength of 450 nm was measured using the TECAN sunrise, and clones having high O. D values were selected as individual clones.

B1: clone A74 (antibody, V domains shown)
VH: EVQLVESGGGLVKPGGSLRLSCAASGFTFSSYAMHWVRQAPGKGLEWVSTITTGGSYTYYADSVQGRFTISRDNAKNSLYLQMNSLRAEDTAVYYCARQDGNFLMDYWGQGTLVTVSS
VL: DVVMTQTPLSLPVTLGQPASISCKSSQSLLDIDGKTYLNWLQQRPGQSPKRLIYLVSKLDSGVPDRFTGSGSGTDFTLKISRVEAEDVGVYYCWQGTHFPFTFGQGTKVEIKR
notes: Fab from phage library at selection; human IgG4/kappa IgG as purified
  binding result: binds
